# Measured values as given in paper PMC8835488, “Production and Biochemical Characterization of Dimeric Recombinant Gremlin-1” (International Journal of Molecular Sciences, 2022).
# Where a chain is given by its changes, count along the chain named.
# B1: recombinant rat gremlin-1 with C-terminal hexa-histidine tag (pcDNA3-Gremlin-1-HisTag) (natural protein, UniProt O35793 25-184, looked up)
# chain: KKKGSQGAIPPPDKAQHNDSEQTQSPPQPGSRTRGRGQGRGTAMPGEEVLESSQEALHVTERKYLKRDWCKTQPLKQTIHEEGCNSRTIINRFCYGQCNSFYIPRHIRKEEGSFQSCSFCKPKKFTTMMVTLNCPELQPPTKKKRVTRVKQCRCISIDLD
# modifications: N-glycosylated in part (glycosylated ~30–45%, non-glycosylated ~70–55% of the protein)
# notes: gremlin-1, rat; secreted protein; the 0.8–0.9 M NaCl heparin-sepharose fractions hold the dimer; also called IMAC-purified gremlin; IMAC gremlin; source: HEK293T, transiently transfected, secreted into the supernatant; purified by IMAC (Ni2+ column), when indicated followed by heparin-sepharose chromatography; not shown: His6, C-terminal, kept
# B2: 10xhis-tagged gremlin expressed in murine myeloma cells (recombinant human gremlin-1 purchased from R&D) (natural protein, UniProt O60565 25-184, looked up)
# chain: B1 chain with P27Q, T33N
# notes: gremlin-1, human; No catalogue number is printed; source: bought: R&D; expressed in murine myeloma cells, IMAC-purified
# Key:
# [1] = target: the molecule itself; assay: non-reducing SDS-PAGE with anti-gremlin Western blot; IMAC-purified gremlin (250 mM imidazole eluate), SDS-PAGE without DTT; shows disulfide-bound dimer beside monomer
# [2] = target: the molecule itself; assay: non-reducing SDS-PAGE; bought 10xHis-tagged gremlin from murine myeloma cells, several batches (Figure S1); SDS-PAGE under reducing or non-reducing conditions
Protein,dimer vs. monomer ratio [1] [%],stoichiometry N [1],stoichiometry N [2]
B1,~20,2,
B2,,,2
